Data from article PMC10022506 (Journal of Agricultural and Food Chemistry, 2023).

Columns and labels:
C=O = assay: purified protein; details: apparent, 100 mM pyruvate, 1 mM Mg2+, 50 mM CHES pH 9.0, 45 °C
EcYfaU = target: T1, EcYfaU (Escherichia coli, UniProt P76469); assay: aldol condensation, HPLC; type: biochemical; details: co-substrate pyruvate; substrate inhibition at high concentration
T1 sequence (P76469 1-267): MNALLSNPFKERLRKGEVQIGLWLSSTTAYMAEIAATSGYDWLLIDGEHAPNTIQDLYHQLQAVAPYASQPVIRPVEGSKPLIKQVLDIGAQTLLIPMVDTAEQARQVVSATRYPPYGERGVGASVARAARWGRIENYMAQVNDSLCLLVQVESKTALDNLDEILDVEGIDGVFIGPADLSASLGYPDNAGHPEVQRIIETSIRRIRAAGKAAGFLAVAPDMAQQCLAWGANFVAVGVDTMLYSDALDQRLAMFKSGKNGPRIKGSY

Row | Compound | Km (C=O) | kcat (C=O) | kcat/Km (C=O) | aldol condensation, HPLC (EcYfaU)
1 | PaADL (Pseudomonas aeruginosa; L241A/V121A) | 35 ± 4.4 mM | 6.63 s⁻¹ | 183 M⁻¹ s⁻¹ | –
2 | C=O [formaldehyde] | – | – | – | we measured the activity of EcYfaU at different substrate concentrations (Figure S7)
3 | PaADL (Pseudomonas aeruginosa; V121A) | 35 ± 4.9 mM | 5.8 s⁻¹ | 167 M⁻¹ s⁻¹ | –
4 | PaADL (Pseudomonas aeruginosa; L241A) | 65 ± 5.9 mM | 7.2 s⁻¹ | 110 M⁻¹ s⁻¹ | –
